Read-outs that look alike come from different tables or passages of the source.
What was measured:
[1] = test system: splenocytes; assay: Mitogen and alloantigen stimulation of splenocytes (3H-thymidine incorporation), whole or adherent/nonadherent cocultures; assay type: cell-based, mice; details: for proliferative responses to Con A, IL-12 and allogeneic stimulation: data not shown
Protocol: The mitogen and alloantigen stimulation of splenocytes assay was performed as follows: In vitro mitogenic stimulation of splenocytes with […] Con A or 100 U/ml rmIL-12 was performed as described [Kurzawa, cited above]. Proliferative responses to allogeneic antigens (mixed lymphocyte reaction, MLR) was measured when splenocytes from the mice were stimulated with 10^5 mitomycin treated A/J splenocytes. Splenocyte fractionation was performed by allowing 10^5 splenocytes to adhere for 90 minutes in 96 well plates, after which the nonadherent cells were removed and cocultured with adherent cells from different wells for assay. When added, antibodies (XMG6 for IFNγ, XT22 for TNFα, AE5 for IL-10 and C17.8 for IL-12 ) were used at […] final concentration. After 72 hours exposure to mitogen, cultures were pulsed with 1 μCi^3H-thymidine for 16 hours, cells were harvested and ^3H incorporation was measured by scintillation counting. Supernatants from cultures assayed for IFNγ by radioimmunoassay (RIA) (using antibodies AN18 and XMG6 [Wysocka, M. et al. 1995 Eur. J. Immunol. 25:672] were harvested 24 or 72 hours after stimulation.
A. Splenocytes from rmIL-12- and PBS-treated C57BL/6 mice were fractioned by adherence to 96 well plastic plates for 90 minutes. The cells were reconstituted in various combinations of adherent and nonadherent cells by overlaying nonadherent cells on the adherent cells. These cocultures were then stimulated with either 2.5 μg/ml Con A, 100 U/ml IL-12, or 10^5 mitomycin C treated A/J (H-2A) splenocytes, as described in the mitogen/alloantigen assay of Example 1.
B. Cocultures were established from splenic adherent and nonadherent cells of PBS-treated mice or from the adherent cells of rmIL-12-treated mice and nonadherent cells of PBS-treated mice. Antibodies XMG6 (to IFNγ), XT22 (to TNFα), AE5 (to IL-10) and C17.8 (to IL-12 ) were added to a final concentration of […] in cocultures containing adherent cells from spleen of rmIL-12-treated mice, also according to the assay described in Example 1.
Cocultures were established from splenic adherent and nonadherent cells of PBS-treated mice or from the adherent cells of rmIL-12-treated mice and nonadherent cells of PBS-treated mice. Antibodies XMG6 (to IFNγ), XT22 (to TNFα), AE5 (to IL-10) and C17.8 (to IL-12) were added to a final concentration of […] in cocultures containing adherent cells from spleen of rmIL-12-treated mice. An inhibitor of inducible nitric oxide synthase (iNOS), L-NMMA (Sigma), was added to cocultures of adherent cells from rmIL-12 treated mice and nonadherent cells from control mice at a final concentration of […]. Alternatively, D-NMMA (Sigma), a noninhibitory isoform of L-NMMA, was added to other cocultures as a control.

[2] = test system: SCK cells; assay: SCK.GM cell vaccination followed by SCK tumor cell challenge; assay type: in vivo, A/J mice; details: rmIL-12 250 ng/day ip days 0-4 and 7-11; challenge two weeks after vaccination
Text: A. Female A/J mice were vaccinated with 10^6 irradiated SCK.GM cells suspended in PBS at 10^7 trypan blue-excluding cells/ml. Cells were irradiated with 6000 rads from a ^137Cs source, and mice were vaccinated with 10^6 cells s.c. (day 0). […] Vaccinated and naive A/J mice were challenged fourteen days after vaccination with 2.5×10^4 trypan blue-excluding SCK cells in the opposite flank to assay for the presence of tumor immunity. Tumorigenesis was scored daily.

[3] = test system: SCK cells; assay: Irradiated wild-type SCK cell vaccination followed by SCK tumor cell challenge; assay type: in vivo, A/J mice; details: SCK-vaccinated mice; at 28 days; rmIL-12 alone, or L-NAME/D-NAME given with rmIL-12
Text: Female A/J mice (8 mice per group) were vaccinated with 10^6 irradiated SCK cells and received either PBS, rmIL-12, rmIL-12+L-NAME or rmIL-12 and D-NAME on days 0-4 and 7-11. Mice were challenged fourteen days after vaccination with 2.5×10^4 SCK cells in the opposite flank. Tumorigenesis was scored daily, as described above.

[4] = test system: SCK tumors; assay: Antitumor activity of rmIL-12 against SCK tumors (tumorigenesis scored daily); assay type: in vivo, A/J mice; details: L-NAME given with rmIL-12
Protocol: Female A/J mice were injected with 2.5×10^4 SCK cells and either PBS, rmIL-12, rmIL-12+L-NAME or rmIL-12 and D-NAME on days 0-4 and 7-11. Tumorigenesis was scored daily, as described above.

[5] = Splenomegaly after a course of rmIL-12; assay type: in vivo; details: iNOS−/− mice, like wild-type mice
[6] = test system: SCK cells; details: cited from earlier work
[7] = test system: SCK cells; details: A/J mice with established SCK immunity; given just prior to tumor cell rechallenge; cited from earlier work
[8] = test system: SCK cells; details: cited from earlier work; remark: listed apart in the source

B1: rmIL-12: recombinant murine Interleukin-12, heterodimeric cytokine, from Genetics Institute (protein, UniProt P43431 23-215; P43432 23-335, looked up)
Interleukin-12 subunit alpha: RVIPVSGPARCLSQSRNLLKTTDDMVKTAREKLKHYSCTAEDIDHEDITRDQTSTLKTCLPLELHKNESCLATRETSSTTRGSCLPPQKTSLMMTLCLGSIYEDLKMYQTEFQAINAALQNHNHQQIILDKGMLVAIDELMQSLNHNGETLRQKPPVGEADPYRVKMKLCILLHAFSTRVVTINRVMGYLSSA
Interleukin-12 subunit beta: MWELEKDVYVVEVDWTPDAPGETVNLTCDTPEEDDITWTSDQRHGVIGSGKTLTITVKEFLDAGQYTCHKGGETLSHSHLLLHKKENGIWSTEILKNFKNKTFLKCEAPNYSGRFTCSWLVQRNMDLKFNIKSSSSSPDSRAVTCGMASLSAEKVTLDQRDYEKYSVSCQEDVTCPTAEETLPIELALEARQQNKYENYSTSFFIRDIIKPDPPKNLQMKPLKNSQVEVSWEYPDSWSTPHSYFSLKFFVRIQRKKEKMKETEEGCNQKGAFLVEKTSTEVQCKGGNVCVQAQDRYYNSSCSKWACVPCRVRS
[1]; cultures of adherent and nonadherent splenocytes both from rmIL-12 treated mice, vs. PBS-treated
  mitogenic responses: suppressed mitogenic responses
[1]; nonadherent cells from control mice mixed with adherent cells from rmIL-12 treated mice
  proliferative responses (Con A, IL-12 or alloantigen): severely impaired
[1]; nonadherent cells from rmIL-12 treated mice cocultured with adherent cells from PBS-treated mice
  mitogenic responses: normal mitogenic responses
[1]; splenocytes from rmIL-12-treated HKB-vaccinated C57BL/6 mice
  in vitro mitogenic and alloproliferative responses: suppressed
[1]; splenocytes from rmIL-12-treated TNFR−/− mice
  proliferative responses to Con A, IL-12 and allogeneic stimulation: suppressed
[1]; splenocytes from rmIL-12-treated iNOS−/− mice
  proliferative responses after stimulation with mitogens or alloantigens: proliferative responses like those of splenocytes from control mice
[1]; splenocytes from rmIL-12 treated IFNγ−/− mice
  proliferative responses to Con A, IL-12 and allogeneic stimulation: normal proliferative responses
[2]
  Effect on SCK.GM vaccine protection from tumor cell challenge: severely impaired this protection
[3]
  level of protection: 75%
[4]; 2.5×10^4 SCK cells, treatment days 0-4 and 7-11, 9 days without rmIL-12
  median days to tumor appearance: 14 days
[4]; treatment started on day of SCK cell injection
  delay of tumor appearance vs. untreated mice: about 5 days
[5]
  splenomegaly: induced splenomegaly
[6]; four weeks after vaccination
  Effect on SCK.GM vaccine protection: had no deleterious effect
[6]; two weeks after vaccination
  Effect on SCK.GM vaccine protection: abrogated protection
[7]
  Effect on tumor protection: impairs tumor protection
[8]; challenged 14 days after vaccination
  Effect on protection by irradiated SCK cell vaccination: did not improve protection
[8]; challenged at 28 days
  Effect on protection by irradiated SCK cell vaccination: did improve protection
